Results on 1 substance are retold here after patent US20060204957A1, “Mta1s, a steriod hormone receptor corepressor” (priority 2002, published 2006).

This experiment concerns the target Estrogen Receptor α (ER) (UniProt P03372). Briefly: cell-based or functional assay.

Estrogen Receptor α (ER), sequence (P03372 whole entry): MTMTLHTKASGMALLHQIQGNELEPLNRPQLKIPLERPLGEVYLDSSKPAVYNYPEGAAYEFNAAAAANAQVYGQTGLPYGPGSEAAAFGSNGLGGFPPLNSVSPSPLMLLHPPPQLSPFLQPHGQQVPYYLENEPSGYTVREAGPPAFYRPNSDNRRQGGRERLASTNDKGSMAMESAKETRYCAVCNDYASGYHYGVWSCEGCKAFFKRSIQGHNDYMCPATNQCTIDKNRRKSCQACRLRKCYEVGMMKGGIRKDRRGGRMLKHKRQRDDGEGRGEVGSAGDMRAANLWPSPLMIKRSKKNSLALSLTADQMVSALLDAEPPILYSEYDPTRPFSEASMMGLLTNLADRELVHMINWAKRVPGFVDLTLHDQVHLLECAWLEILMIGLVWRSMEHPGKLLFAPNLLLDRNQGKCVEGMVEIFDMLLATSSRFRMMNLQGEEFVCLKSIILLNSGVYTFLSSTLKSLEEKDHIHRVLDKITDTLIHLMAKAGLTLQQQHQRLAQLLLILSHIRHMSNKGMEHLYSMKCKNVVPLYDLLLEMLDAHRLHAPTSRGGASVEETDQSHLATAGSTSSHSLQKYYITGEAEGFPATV

Turning to MTA1s-del (from UniProt Q13330 1-397), the presence of ERα in the nucleus of estradiol stimulated MCF-7 cells was above 90%.
